Measured values reported in article PMC6684798, “Structural basis for the target specificity of actin histidine methyltransferase SETD3” (Nature Communications, 2019).

Tests used:
[1] = system: SETD3 variants (WT, N255A, N255V); experiment: Comparison of activities of SETD3 variants (Fig. 3a, c); assay type: biochemical, human; settings: Fig. 3c, K73(66–88), pH 10.5, 37 °C
Method: (§1) Fig. 3 Kinetics of SETD3 on H73 and K73 peptides. a Comparison of activities of three variants (WT, N255A, and N255V) on H73(66–80) peptide. The assays were performed at room temperature (~22 °C) and pH 8.0 using [WT] = 0.18 μM, [N255A] = 0.18 μM, and [N255V] = 0.72 μM. b Comparison of SETD3 WT activities on two K73 peptides (residues 66–80 and 66–88). The assays were performed at 37 °C and pH 10.5 using [WT] = 3 and 15 μM, respectively, for the long and short peptides. c Comparison of activities of three variants (N255A, N255V, and WT) on K73(66–88) peptide. The assays were performed at 37 °C and pH 10.5 using [N255A] = 90 nM, [N255V] = 0.72 μM and [WT] = 4 μM. Data represent the mean ± SD of N number of independent determinations (N = 3 for the WT and N = 2 for the mutants) performed in duplicate. […]
(§2) Recombinant human SETD3 (pXC2003) was expressed as a GST-fusion[22] in Escherichia coli BL21(DE3) CodonPlus^TM cells (Stratagene). […]
A reaction mixture contained 20 mM Tris/HCl (pH 8.0) or 20 mM glycine/NaOH (pH 10.5), 50 mM NaCl, 0.1 mg/ml BSA, 1 mM DTT, 0.18–15 µM SETD3 (as indicated in Fig. 3), 40 µM SAM and varying concentration of peptides. […] The dependence of the velocity of product formation per enzyme on substrate concentration was analyzed according to the Michaelis–Menten equation.

SETD3 WT = biological target: T1, SETD3 WT (Homo sapiens, UniProt Q86TU7); experiment: MALDI-TOF analysis of K73(66–88) methylation by SETD3 WT (Fig. 3e); assay type: biochemical; settings: pH 10.5, 37 °C, 3 μM WT, 10 µM peptide, 40 µM SAM
T1 construct: GST (cleaved yes); made in house; host or cells: Escherichia coli BL21(DE3) CodonPlus
T1 sequence (Q86TU7 1-594): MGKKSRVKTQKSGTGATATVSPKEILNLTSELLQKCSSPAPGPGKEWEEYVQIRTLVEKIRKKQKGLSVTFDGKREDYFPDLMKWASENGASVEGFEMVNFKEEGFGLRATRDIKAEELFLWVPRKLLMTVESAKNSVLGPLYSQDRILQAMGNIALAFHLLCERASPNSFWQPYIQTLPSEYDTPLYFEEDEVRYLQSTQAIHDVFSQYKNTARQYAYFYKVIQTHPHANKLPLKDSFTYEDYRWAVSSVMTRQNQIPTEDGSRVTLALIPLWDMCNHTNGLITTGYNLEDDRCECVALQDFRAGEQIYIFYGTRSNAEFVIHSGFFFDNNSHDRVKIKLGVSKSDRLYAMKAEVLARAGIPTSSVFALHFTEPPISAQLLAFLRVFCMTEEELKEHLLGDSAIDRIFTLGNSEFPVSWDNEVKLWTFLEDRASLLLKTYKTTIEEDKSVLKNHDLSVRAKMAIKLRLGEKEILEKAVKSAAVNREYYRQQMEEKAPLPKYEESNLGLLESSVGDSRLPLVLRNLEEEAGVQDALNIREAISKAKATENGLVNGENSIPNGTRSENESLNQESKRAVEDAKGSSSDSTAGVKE
Method: as §1, with “duplicate. Source data are provided as a Source Data file. d, e Mass spectrometry analysis of K73(66–88) methylation kinetic showing representative spectra at various time points for N255A variant (panel d) and SETD3 WT enzyme (panel e).” for “duplicate.”
as §2
Actin K73 peptide (residues 66–88) was used as a substrate for SETD3 (Fig. 3d, e). […] We note that samples diluted into a 0.1% (v/v) TFA solution in water could not be detected by MALDI-TOF, thus the acetonitrile additive is necessary.

For “K73(66–88): K73-containing actin H73K peptide, residues 66–88 (TLKYPIEKGIVTNWDDMEKIWHH; UniProt P60709 66-88, looked up, variant H73K)”, the “order of activity of SETD3 variants on K73” value [1] was “N255A≫N255V>WT”, the K73 methylation product (SETD3 WT; 2 h) was “only monomethyl lysine” and the K73 methylation product (SETD3 WT; overnight) was “substantial amounts of unmodified and monomethyl substrates remain, along with a small amount of dimethyl and tri-methyl products”.
